According to US20220118089A1 (UNIVERSITY OF CHICAGO, published 2022):
Values belong to the molecule of their own block, whether it stands above or below them.

Legend:
[1] = biological target: human type III collagen (Millipore Sigma) (human) (UniProt P02461); test: ELISA on plates coated with collagen III, 0-740 nM A3-IL4
[2] = biological target: recombinant mouse IL-4Ra protein (R&D Systems) (mouse) (UniProt P16382); test: ELISA on plates coated with recombinant mouse IL-4Ra (10 µg/mL), 0-740 nM A3-IL4, detected with an antibody against mouse IL-4, A450; Kd from the fitted curve [B]
[3] = biological target: T1, human type III collagen (Millipore Sigma) (human, UniProt P02461 154-1221); test: SPR (Biacore X100), human type III collagen immobilised by amine coupling, CBD-SA-IL-10 flowed, 1:1 Langmuir fit
T1 construct: treated as one molecule; also called collagen type III; collagen III
T1 sequence (looked up): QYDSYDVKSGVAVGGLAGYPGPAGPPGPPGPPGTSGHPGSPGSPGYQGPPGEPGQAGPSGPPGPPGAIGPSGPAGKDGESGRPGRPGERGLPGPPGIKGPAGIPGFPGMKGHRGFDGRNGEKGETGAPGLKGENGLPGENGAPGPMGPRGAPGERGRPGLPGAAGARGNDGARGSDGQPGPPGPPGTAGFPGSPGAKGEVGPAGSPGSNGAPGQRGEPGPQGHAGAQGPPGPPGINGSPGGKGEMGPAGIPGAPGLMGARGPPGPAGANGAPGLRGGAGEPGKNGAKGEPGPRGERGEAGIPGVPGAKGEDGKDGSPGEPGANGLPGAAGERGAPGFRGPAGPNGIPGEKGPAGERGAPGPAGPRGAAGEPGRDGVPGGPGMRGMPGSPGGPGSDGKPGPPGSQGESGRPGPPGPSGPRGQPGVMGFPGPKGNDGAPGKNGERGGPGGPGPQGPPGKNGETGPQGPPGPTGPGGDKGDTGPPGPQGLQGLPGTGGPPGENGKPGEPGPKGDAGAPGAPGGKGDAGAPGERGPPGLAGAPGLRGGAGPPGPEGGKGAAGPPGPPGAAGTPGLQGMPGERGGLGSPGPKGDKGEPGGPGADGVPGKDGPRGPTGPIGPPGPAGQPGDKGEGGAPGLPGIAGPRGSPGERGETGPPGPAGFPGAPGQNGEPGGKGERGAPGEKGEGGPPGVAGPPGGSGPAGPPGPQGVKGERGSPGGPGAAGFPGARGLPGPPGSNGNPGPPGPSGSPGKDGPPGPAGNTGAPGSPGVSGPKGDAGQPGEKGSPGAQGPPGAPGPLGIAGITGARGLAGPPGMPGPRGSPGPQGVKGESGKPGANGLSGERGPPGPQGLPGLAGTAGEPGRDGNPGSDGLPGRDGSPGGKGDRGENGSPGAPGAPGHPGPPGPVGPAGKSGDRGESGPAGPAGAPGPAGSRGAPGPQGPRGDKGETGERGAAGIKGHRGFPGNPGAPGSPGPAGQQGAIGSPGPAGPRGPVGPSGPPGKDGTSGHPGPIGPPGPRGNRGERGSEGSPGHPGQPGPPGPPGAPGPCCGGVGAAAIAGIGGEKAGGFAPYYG
Protocol: (§1) SPR measurements were carried out with Biacore X100 instrument. In collagen binding experiments, recombinant human type I or type III collagen (Millipore Sigma) were immobilized on a CMS sensor chip by standard amine coupling method (˜1500 resonance units (RUs)) and blocked with ethanolamine. […] In FcRn binding experiments, recombinant mouse FcRn (Acro Biosystems) was immobilized via amine coupling on a C1 chip (GE Healthcare) for ˜200 RU according to the manufacturer's instructions. […] The sensor chip was regenerated with PBS, pH 7.4 for every cycle.

[4] = biological target: T2, recombinant mouse FcRn (Acro Biosystems) (mouse, UniProt Q61559 22-297; P01887 21-119); test: SPR (Biacore X100), mouse FcRn immobilised on a C1 chip, CBD-SA-IL-10 flowed at pH 5.8, 1:1 Langmuir fit
T2 construct: also called neonatal Fc receptor; murine FcRn recombinant protein
T2 sequence (looked up) 1: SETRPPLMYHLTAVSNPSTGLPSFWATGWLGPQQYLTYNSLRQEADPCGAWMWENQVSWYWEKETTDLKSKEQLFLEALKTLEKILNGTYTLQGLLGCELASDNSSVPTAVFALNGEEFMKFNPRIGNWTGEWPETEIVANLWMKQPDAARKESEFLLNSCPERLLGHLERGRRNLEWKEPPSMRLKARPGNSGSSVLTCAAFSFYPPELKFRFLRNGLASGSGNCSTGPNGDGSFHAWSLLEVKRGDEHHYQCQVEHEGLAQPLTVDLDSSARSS
T2 sequence (looked up) 2: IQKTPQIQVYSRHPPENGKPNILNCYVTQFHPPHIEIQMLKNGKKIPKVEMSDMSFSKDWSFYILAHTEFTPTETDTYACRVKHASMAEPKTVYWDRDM
Protocol: as §1

[5] = biological target: T3, human type I collagen (Millipore Sigma) (human, UniProt P02452 162-1218; P08123 80-1119); test: SPR (Biacore X100), human type I collagen immobilised by amine coupling, CBD-SA-IL-10 flowed, 1:1 Langmuir fit
T3 construct: treated as one molecule; also called collagen type I
Protocol: as §1

T3 sequence (P02452 162-1218, chain 1 of 2): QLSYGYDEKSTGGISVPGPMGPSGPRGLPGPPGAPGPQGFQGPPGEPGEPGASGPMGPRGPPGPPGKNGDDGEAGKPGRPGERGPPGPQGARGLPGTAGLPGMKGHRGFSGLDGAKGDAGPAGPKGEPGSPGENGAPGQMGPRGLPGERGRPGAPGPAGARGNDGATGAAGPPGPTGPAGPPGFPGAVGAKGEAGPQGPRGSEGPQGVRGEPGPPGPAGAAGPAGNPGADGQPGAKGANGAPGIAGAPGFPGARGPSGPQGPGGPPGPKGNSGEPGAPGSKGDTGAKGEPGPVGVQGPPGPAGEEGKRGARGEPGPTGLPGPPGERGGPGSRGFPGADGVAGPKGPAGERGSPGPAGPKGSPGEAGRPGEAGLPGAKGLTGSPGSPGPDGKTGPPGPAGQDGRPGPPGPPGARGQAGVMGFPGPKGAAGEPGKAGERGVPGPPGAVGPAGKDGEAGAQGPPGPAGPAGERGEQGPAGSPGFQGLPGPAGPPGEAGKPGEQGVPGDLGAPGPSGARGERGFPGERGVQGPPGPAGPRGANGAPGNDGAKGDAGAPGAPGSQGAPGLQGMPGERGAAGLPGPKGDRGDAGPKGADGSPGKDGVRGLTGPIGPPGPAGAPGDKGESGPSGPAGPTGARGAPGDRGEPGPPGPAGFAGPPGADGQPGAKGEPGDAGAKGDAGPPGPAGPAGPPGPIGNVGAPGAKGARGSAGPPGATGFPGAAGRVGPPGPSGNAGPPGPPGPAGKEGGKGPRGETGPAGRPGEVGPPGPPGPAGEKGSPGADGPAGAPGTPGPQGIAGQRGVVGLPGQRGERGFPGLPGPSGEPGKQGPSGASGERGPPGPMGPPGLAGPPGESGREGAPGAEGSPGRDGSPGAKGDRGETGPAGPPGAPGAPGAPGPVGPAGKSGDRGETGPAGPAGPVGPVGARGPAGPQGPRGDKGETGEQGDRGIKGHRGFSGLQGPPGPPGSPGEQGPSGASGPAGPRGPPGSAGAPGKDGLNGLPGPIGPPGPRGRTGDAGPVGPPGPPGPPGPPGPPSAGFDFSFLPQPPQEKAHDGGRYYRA
T3 sequence (P08123 80-1119, chain 2 of 2): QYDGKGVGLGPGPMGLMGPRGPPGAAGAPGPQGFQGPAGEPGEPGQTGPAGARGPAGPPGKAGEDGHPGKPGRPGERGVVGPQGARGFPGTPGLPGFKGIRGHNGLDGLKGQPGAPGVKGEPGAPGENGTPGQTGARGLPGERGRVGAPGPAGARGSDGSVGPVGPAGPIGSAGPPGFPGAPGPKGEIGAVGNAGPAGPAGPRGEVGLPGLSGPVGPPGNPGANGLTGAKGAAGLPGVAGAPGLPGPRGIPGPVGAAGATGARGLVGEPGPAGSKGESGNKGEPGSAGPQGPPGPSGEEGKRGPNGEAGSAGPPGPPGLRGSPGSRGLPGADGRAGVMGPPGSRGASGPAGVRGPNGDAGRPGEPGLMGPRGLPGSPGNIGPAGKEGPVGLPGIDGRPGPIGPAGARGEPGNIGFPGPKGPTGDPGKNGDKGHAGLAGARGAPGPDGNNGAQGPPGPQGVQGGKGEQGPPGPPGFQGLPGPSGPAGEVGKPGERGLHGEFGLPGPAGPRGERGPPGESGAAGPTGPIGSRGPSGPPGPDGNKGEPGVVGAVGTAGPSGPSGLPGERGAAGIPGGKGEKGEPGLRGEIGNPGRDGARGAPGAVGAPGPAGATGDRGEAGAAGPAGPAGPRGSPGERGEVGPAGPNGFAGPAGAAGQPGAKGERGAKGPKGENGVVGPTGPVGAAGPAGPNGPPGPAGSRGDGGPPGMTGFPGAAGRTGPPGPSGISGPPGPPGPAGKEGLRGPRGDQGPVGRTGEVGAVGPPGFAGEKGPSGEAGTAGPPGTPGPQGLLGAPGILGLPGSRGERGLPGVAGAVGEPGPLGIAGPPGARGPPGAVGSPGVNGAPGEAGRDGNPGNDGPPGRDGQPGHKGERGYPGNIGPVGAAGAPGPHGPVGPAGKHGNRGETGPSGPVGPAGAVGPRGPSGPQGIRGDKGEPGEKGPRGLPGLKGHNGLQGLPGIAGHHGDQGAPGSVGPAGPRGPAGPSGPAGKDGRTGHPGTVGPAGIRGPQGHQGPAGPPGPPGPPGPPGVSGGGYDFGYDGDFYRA
Chain of recombinant mouse IL-4Ra protein (R&D Systems) (mouse) (P16382 26-233 limits assumed): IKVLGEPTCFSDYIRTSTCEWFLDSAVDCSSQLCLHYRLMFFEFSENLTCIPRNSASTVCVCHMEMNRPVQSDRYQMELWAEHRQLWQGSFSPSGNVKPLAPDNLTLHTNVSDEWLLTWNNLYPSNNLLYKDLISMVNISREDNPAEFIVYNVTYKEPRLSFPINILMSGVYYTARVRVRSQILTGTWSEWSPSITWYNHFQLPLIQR

Kd [1]: 28.6 nM | Kd [2]: 100 nM
Molecule: vWF A3 domain-fused IL-4 (human vWF A3 domain and mouse IL-4 fusion protein)

Kd [3]: 8 nM | koff [3]: 0.0026 s⁻¹ | Kd [4]: 1600 nM | koff [4]: 0.0084 s⁻¹ | kon [4]: 5210 M⁻¹ s⁻¹ | Kd [5]: 12.4 nM | koff [5]: 0.0034 s⁻¹
B1: Human VWF A3 domain (CBD), mouse serum albumin and mouse IL-10 fusion protein (other)
chain: CSQPLDVVLLLDGSSSLPESSFDKMKSFAKAFISKANIGPHLTQVSVIQYGSINTIDVPWNVVQEKAHLQSLVDLMQQEGGPSQIGDALAFAVRYVTSQIHGARPGASKAVVIIIMDTSLDPVDTAADAARSNRVAVFPVGVGDRYDEAQLRILAGPGASSNVVKLQQVEDLSTMATLGNSFFHKLCSGFSGVGGGSGGGSEAHKSEIAHRYNDLGEQHFKGLVLIAFSQYLQKCSYDEHAKLVQEVTDFAKTCVADESAANCDKSLHTLFGDKLCAIPNLRENYGELADCCTKQEPERNECFLQHKDDNPSLPPFERPEAEAMCTSFKENPTTFMGHYLHEVARRHPYFYAPELLYYAEQYNEILTQCCAEADKESCLTPKLDGVKEKALVSSVRQRMKCSSMQKFGERAFKAWAVARLSQTFPNADFAEITKLATDLTKVNKECCHGDLLECADDRAELAKYMCENQATISSKLQTCCDKPLLKKAHCLSEVEHDTMPADLPAIAADFVEDQEVCKNYAEAKDVFLGTFLYEYSRRHPDYSVSLLLRLAKKYEATLEKCCAEANPPACYGTVLAEFQPLVEEPKNLVKTNCDLYEKLGEYGFQNAILVRYTQKAPQVSTPTLVEAARNLGRVGTKCCTLPEDQRLPCVEDYLSAILNRVCLLHEKTPVSEHVTKCCSGSLVERRPCFSALTVDETYVPKEFKAETFTFHSDICTLPEKEKQIKKQTALAELVKHKPKATAEQLKTVMDDFAQFLDTCCKAADKDTCFSTEGPNLVTRCKDALAGGGSGGGSSRGQYSREDNNCTHFPVGQSHMLLELRTAFSQVKTFFQTKDQLDNILLTDSLMQDFKGYLGCQALSEMIQFYLVEVMPQAEKHGPEIKEHLNSLGEKLKTLRMRLRRCHRFLPCENKSKAVEQVKSDFNKLQDQGVYKAMNEFDIFINCIEAYMMIKMKSHHHHHH
notes: also called CBD-SA-IL-10; CBD-SA-fused IL-10
